Experiment [1] concerns the target human SIDT1 (hSIDT1) (human) (UniProt Q9NXL6). The experiment is described as follows: cryo-EM structure; hSIDT1 at pH 5.5 (hSIDT1^pH5.5); homodimer, dimer interface rearranged against pH 7.5.
For experiment [2] the target is unchanged. The experiment is described as follows: cryo-EM structure; hSIDT1 at pH 7.5 (hSIDT1^pH7.5); cholesteryl hemisuccinate in the buffer during membrane solubilization; homodimer.

By stoichiometry N is commonly meant a count of units in the complex or per binding partner.

For the substance “human SIDT1 (hSIDT1) (from UniProt Q9NXL6 20-827) (natural protein)”, the stoichiometry N in experiment [1] and in experiment [2] was 2 each time.
